Source: patent publication US20250145720A1
pKd: −log10 of the molar value.

Tests used:
[1] = target: human complement component C1q (human) (UniProt P02745); assay: cell-based or functional assay
[2] = target: human complement component C1q (human) (UniProt P02745); assay: FACS, C1q on antibody-opsonized Daudi cells, Exp. 11
[3] = target: human complement component C1q (human) (UniProt P02745); assay: FACS, C1q on antibody-opsonized Daudi cells, average
[4] = target: human complement component C1q (human) (UniProt P02745); assay: FACS, C1q on antibody-opsonized Daudi cells, Exp. 6
[5] = target: human complement component C1q (human) (UniProt P02745); assay: FACS, C1q on antibody-opsonized Daudi cells, ranking table
[6] = target: human complement component C1q (human) (UniProt P02745); assay: FACS, C1q on antibody-opsonized Raji cells, Exp. 3
[7] = target: human complement component C1q (human) (UniProt P02745); assay: FACS, C1q on antibody-opsonized Raji cells, average
[8] = target: human complement component C1q (human) (UniProt P02745); assay: FACS, C1q on antibody-opsonized Daudi cells, Exp. 1
[9] = target: human complement component C1q (human) (UniProt P02745); assay: FACS, C1q on antibody-opsonized Daudi cells, Exp. 3
[10] = target: human complement component C1q (human) (UniProt P02745); assay: FACS, C1q on antibody-opsonized Raji cells, Exp. 2
[11] = target: human complement component C1q (human) (UniProt P02745); assay: FACS, C1q on antibody-opsonized Raji cells, Exp. 1
[12] = target: human complement component C1q (human) (UniProt P02745); assay: FACS, C1q on antibody-opsonized Daudi cells, Exp. 4
[13] = target: human complement component C1q (human) (UniProt P02745); assay: C1q ELISA, antibody coated in dilution series, 3% pooled human serum
[14] = target: human complement component C1q (human) (UniProt P02745); assay: FACS, C1q on antibody-opsonized Daudi cells, Exp. 2
[15] = target: mouse FcRn, biotinylated extracellular domain (FcRnECDHis-B2M-BIO) (mouse) (UniProt Q61559); assay: ELISA on coated mouse FcRn at pH 6.0, apparent affinity
[16] = target: human complement component C1q (human) (UniProt P02745); assay: FACS, C1q on antibody-opsonized Daudi cells, Exp. 5
[17] = target: human complement component C1q (human) (UniProt P02745); assay: FACS, C1q on antibody-opsonized Daudi cells, Exp. 10
[18] = target: human complement component C1q (human) (UniProt P02745); assay: FACS, C1q on antibody-opsonized Daudi cells, Exp. 8
[19] = target: human complement component C1q (human) (UniProt P02745); assay: FACS, C1q on antibody-opsonized Daudi cells, Exp. 7

Chain of mouse FcRn, biotinylated extracellular domain (FcRnECDHis-B2M-BIO) (mouse) (Q61559 22-297): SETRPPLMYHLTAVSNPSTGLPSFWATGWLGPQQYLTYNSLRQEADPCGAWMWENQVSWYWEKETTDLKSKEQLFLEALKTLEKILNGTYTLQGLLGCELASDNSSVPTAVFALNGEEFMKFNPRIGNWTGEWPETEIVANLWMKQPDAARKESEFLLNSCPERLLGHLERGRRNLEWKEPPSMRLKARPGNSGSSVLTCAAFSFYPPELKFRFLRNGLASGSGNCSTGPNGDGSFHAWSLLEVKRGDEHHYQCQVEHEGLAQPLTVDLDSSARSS
Chain of human complement component C1q (human) (P02745 23-245 limits assumed, chain 1 of 3): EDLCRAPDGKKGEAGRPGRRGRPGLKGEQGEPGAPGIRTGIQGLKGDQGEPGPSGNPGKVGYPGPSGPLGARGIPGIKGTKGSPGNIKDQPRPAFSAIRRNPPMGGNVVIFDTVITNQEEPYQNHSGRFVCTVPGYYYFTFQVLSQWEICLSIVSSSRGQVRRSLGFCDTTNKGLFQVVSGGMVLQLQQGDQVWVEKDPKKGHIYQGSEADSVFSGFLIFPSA
Chain of human complement component C1q (human) (P02746 28-253 limits assumed, chain 2 of 3, further chain): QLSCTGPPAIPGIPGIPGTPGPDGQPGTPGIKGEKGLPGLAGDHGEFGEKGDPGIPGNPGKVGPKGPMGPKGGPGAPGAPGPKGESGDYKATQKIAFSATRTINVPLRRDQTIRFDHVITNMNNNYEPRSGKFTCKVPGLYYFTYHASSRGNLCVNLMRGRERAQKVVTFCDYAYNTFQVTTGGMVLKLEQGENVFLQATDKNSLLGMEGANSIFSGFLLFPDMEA
Chain of human complement component C1q (human) (P02747 29-245 limits assumed, chain 3 of 3, further chain): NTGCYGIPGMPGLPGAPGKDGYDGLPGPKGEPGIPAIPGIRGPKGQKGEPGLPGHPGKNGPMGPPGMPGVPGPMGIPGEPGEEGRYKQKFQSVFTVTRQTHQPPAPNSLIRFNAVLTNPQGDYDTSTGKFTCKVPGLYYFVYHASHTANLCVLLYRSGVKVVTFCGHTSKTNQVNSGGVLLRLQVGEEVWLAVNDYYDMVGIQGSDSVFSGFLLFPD

Row | Substance | CH50 (C1q concentration giving 50% lysis), CDC on Raji cells in C1q-depleted serum [1] [µg/mL] | EC50 of CDC on Daudi cells, 20% normal human serum [1] [µg/mL] | EC50 of CDC on Raji cells, 20% normal human serum [1] [µg/mL] | pKd [3] | pKd [5] | pKd [8] | pKd [12] | EC50 [13] [µg/mL] | pKd [14] | EC50 [15] [µg/mL] | also measured
1 | IgG1-7D8-G385D (antibody) | 22.5 | 2.12 | 17.4 | 7.13 | 7.13 | – | – | – | – | – | pKd [2]: 7.15; pKd [4]: 7.11
2 | IgG1-7D8-N434A (antibody) | 21.2 | 1.77 | – | 7.37 | 7.37 | 7.44 | 7.31 | 2.12 | 7.32 | – | pKd [6]: 7.45; pKd [7]: 7.35; pKd [9]: 7.55; pKd [10]: 7.33; pKd [11]: 7.44
3 | IgG1-005-S440K (antibody) | – | – | – | – | – | – | – | – | – | 0.11 | –
4 | IgG1-005-E430T (antibody) | – | – | – | – | – | – | – | – | – | 0.15 | –
5 | IgG1-005-E345Y (antibody) | – | – | – | – | – | – | – | – | – | 0.13 | –
6 | IgG1-7D8-I253D (antibody) | > 30 | 3.33 | > 30 | 6.80 | 6.80 | 6.83 | 6.69 | 3.84 | 6.75 | – | pKd [6]: 7.07; pKd [10]: 6.76; pKd [11]: 7.15
7 | IgG1-005-E345R (antibody) | – | – | – | – | – | – | – | – | – | 0.09 | –
8 | IgG1-7D8-I253A (antibody) | 11.2 | 0.79 | 5.55 | 7.67 | 7.67 | 7.48 | 7.80 | 2.56 | 7.69 | – | pKd [6]: 7.70; pKd [7]: 7.73; pKd [9]: 7.78; pKd [10]: 7.59
9 | IgG1-7D8-H310K (antibody) | > 30 | 3.03 | 19.3 | 6.91 | 6.91 | – | – | – | – | – | pKd [2]: 6.67; pKd [16]: 7.49
10 | IgG1-7D8-H435A (antibody) | 0.96 | 0.81 | 2.22 | – | – | 8.11 | 7.96 | 2.27 | 7.96 | – | pKd [7]: 8.14; pKd [9]: 8.30; pKd [10]: 8.00; pKd [11]: 8.27
11 | IgG1-7D8 (HuMab-7D8, wild type) (antibody) | 0.49 | 0.48 | 1.54 | – | – | 8.11 | – | 2.05 | – | – | pKd [6]: 7.96; pKd [2]: 7.88; pKd [17]: 7.93; pKd [11]: 8.32
12 | IgG1-005-E430H (antibody) | – | – | – | – | – | – | – | – | – | 0.11 | –
13 | IgG1-005-E345K (antibody) | – | – | – | – | – | – | – | – | – | 0.1 | –
14 | IgG1-7D8-H435R (antibody) | 0.24 | 0.28 | 0.61 | – | – | – | 8.52 | 1.24 | 8.06 | – | pKd [9]: 8.59
15 | IgG1-7D8-K439E/S440K (antibody) | 0.09 | 0.33 | 1.34 | 8.59 | 8.59 | – | – | – | – | – | pKd [18]: 9.00; pKd [17]: 8.54; pKd [4]: 8.34; pKd [19]: 8.79
16 | IgG1-7D8-I253Y (antibody) | 16.1 | 1.77 | 28.9 | 7.38 | 7.38 | 7.23 | 7.31 | 2.21 | 7.43 | – | pKd [6]: 7.34; pKd [7]: 7.41; pKd [9]: 7.68; pKd [10]: 7.34; pKd [11]: 7.61
17 | IgG1-7D8-K439E (antibody) | > 30 | 2.34 | 21.5 | 6.44 | 6.44 | – | – | – | – | – | pKd [2]: 6.52; pKd [4]: 6.38
18 | IgG1-005-E430S (antibody) | – | – | – | – | – | – | – | – | – | 0.14 | –
